47 sequences from the NTF2 design screens of Basanta et al. (2020) can be followed below.

The data set in a line: protease stability score; higher = more stable; yeast display proteolysis, trypsin and chymotrypsin.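 Also: log10 excess protease needed over predicted unfolded state with 0 meaning unfolded.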
For the sequence “DEERSAHKFLKDMEKLMRTGDFQEVAKLFDKHAKVEVGDKRVHGREQIIRTNQQWEKRVDSVDLKIQHVSVKGEDVDVHYNMVLRYNGRNDNRVYRFVATVHGDKVRITHMELE”, the protease stability score was determined as 0.348.
On to “DEERSNLVESVFRALEHNDEKRLNELFDPNVNVQIGDDKIRGREELVKFMRTLKRQMRIRYRTMDLHVQGDKVVVRATFEVNVNGTPHNVTMEFHAEVHNGKFKHARIKIPEEKLKTMQS”, for which the protease stability score was 1.57.
The figure for “DEERVERLARTAFKAAVNGDEDKLRKMLKPDVKYKYIDEEREGEDVAKFVVKLMKKIGAEVRLKRLEVRGDTVKADFDYKQGDKTVRTKAEVKYKGDKVDEARVELTDEVKKVLTRG” is 0.125; for “DEERVHQAVRIIKHNDPDKLRKLADPNAKFQVGDREIHGMEEYADIVAQIMEKADKITFTDIQVHNGRLTIEVVINVNGRNIQFQIFLEFHNGKLKHAHIQATSEEVQRQLNSLMG” it is 0.674; for “DEERVKDLVKKIFKDIRNGDEERVRKKGKPDVKYEYADKTFEGEDAVRFIVEILKKVGAEDKTQNETVHGDKAQANFQYDKGDQTAQTTAQVEYKGDKVDKMRVKISEEVKKVVEQG” it is -0.116.
The figure for “DEERVKQLAEKAFKAIQNNDQEKLEKMGKPNVQYEYVDKKYEGPEVVKVVIKVVQKIGAKLETQEQEVKGDTARATFQYKNGDKTMQTTAEVRYKGDKMEEFRMELSDEVKKVVHQG” is -0.207.
In the case of “DEERVKQLAEKVFKYVIKGDKDEVRKQGKPDVKYKYIDKEYEGPDALEKAVKLVKRLGMKAETKELKVKGNTVRAKFEYRKGDQTMKTEVEVHYEGDVVKEAKVKISDEVKKFVHQG” it was 0.309.
“DEERVKQVQKKAFEAVMKGNDDEMRKIGKPNVRYEYIDEKNEGQEAVDVVIQLVKKVGAEAKVRRTEVKGDTVRAIFVYNDGDQTVQTKVEVKYEGDKVKEARVELTDEVQKVLHKG” registered a protease stability score of -0.027.
In the case of “DEERVNDIAHKIAQNLRTNDEEQLVRMMDENAKVTVGEHRIDGREQIRTMWHKIKQHVDHVEVKHVEARGDRIRIIIVLNHNGRQRTIVMYVSIHNGHIKVLKIESQ” it was 1.51.
In the case of “DEERVQQMLEQAFKAIQNGNEEQMQKLGKPNVEYKYVDHEYEGPDAARVMVQLVKRVGAEVKQQKVEVKGNTATAVFQYHDGDQTVETTAEVEYEGDKMKKARVELTDEVKKVVHKG” it was -0.117.
In the case of “DEERVRKVVEKLVDAVTRGDKDDIKKMLKKHVEFKLVDQEYKGVDQAVKVVKELHDYGMEVHVKEVRVKGDTAHATTVWKKGNTEAHVKVEYHVRDDKVEKVKIQWTEEAQKALKHG” it was 0.283; in that of “DEERVRQIADKMFKAIISGNSKDVQQVVKPNIQYEYGDEKYQGPKVVDQLVKVVKKIGAEVREREKTVHGDTMTAVFQYHKGDTTVQTEAEVKYEGDKAKRLRVKLSEEAQKVIKQG”, -0.114; in that of “DEERYKQLMEKAFKMIKQGNEEEARKLLKPDVEYHYADKTFRGEEAAQFIVKVVQKLGAEDHNQRQEVNGDTMKADFRYTQGDQTVQTKAEVIYKGDKATEARVEMSDEVKKVLDQG”, -0.052.
Take “DEERYKRLFEKVFKVVQNGNKDELKKLLAPNVEYNYVDKTYEGEEAAKAVVQLVKKVGAKAKQQKVEVKGDTATAHFQYENGDQRVETQAELHYEGDKVKKVQVKLTDEVKKVVHQG”: the protease stability score came to 0.356.
In the case of “DEESDKKFLEKIRKLFEDGDPDQFRKMFPPDATAVIGDKSVHGNQVEQAVNTFEKNRADHVRIDSFEVSNGRVDIDVVVNHNGEERRIKIVFIARNGRLEHMRFVST” it was 0.215; in that of “DEESKKQIDNWLKAVQQGDPDQLVKNVDKDVTVEYGDKSIHGRESLMKTLEDKKKQWRLEFKSVDVDVHGDKARLDVDVVLQINGQPFRHTRTIHVHLHNGRVKHMRFRFDEQQQRDMDR”, 1.12.
Turning to “DEESLAKEFIKHVNDNADTGNPDDMAELFDPNARIEVGDKKYDGHKDITKLNEELNREADHIKYTINSVKRDGDFVRLDIEVRMDVNGKDVNHRYRANVAVTNGRLVVRSLTSS”, the protease stability score is 0.891.
The figure for “DEESLDHLRKVLEKNDPDQLTELMDPDATAVIGNTEVHGREKVVTIMRRIYERADSIHIDRFSHQGDRLVADMQVNINGKKMRYEYVIRVHNGRIKYVKFHVTSEDVERDLTRAVS” is 1.67.
The figure for “DEESLRKFAKRVFRALQTGNPEDIHRLFDKDAHFVVGDKEVHGREQAIKFLSHIRRRADRISLKRMSVRGDKVSIDLQMTVDGHRTRFIVYIQVHNGRARRLKIEEN” is 1.57; for “DEESMHRMVTDLMHIIDSGNPDEAVKLADPNVQVTYGDRKYHGQDAVRDYIRELKKRVDTVNLKRVELSGEKATATAVFNVNGNRVDVEMTVTAQNGKIQSIDASVRDPDQKRKEKK” it is 0.8; for “DEESNHDVARKLMRALETGDPDKLRELADKHARITVGEKTIHGREDASRFAKELRDRIDHATVKHMDVDGNKVVINMTVRVNGRDLEVFVTAIVTNGRIKHIRFQYTDEDKNKEVEG” it is 1.18.
“DEESQARKFIKQYHDVLETGDENEARRLADENVKVHVGEFHYRGSDQYAHAVKRLRNKVDHIHMTLTEISVSNGEVNVVLKVVLNYNGTNDSFKMTMRADRVNGTLVLVEVKNG” showed a protease stability score of 0.389.
The sequence “DEESQKQMMKEMSDVWKHNDPDEAQKLADKDVKIRYGDREYHGREDFVSAMREFSKQADSITVKHMTVQGDKIVLDIIIQYDGQHREIVVIVHVHNGRIQELQIQDG” showed a protease stability score of 0.637.
The figure for “DEESRAQSFMSKFNDNLRRGDPEKLKTYMDPNVKVQVGEKRLNGREQAARFWVEIARHVDHISVEFKSLKVTGDKIKAKAIVVLDVNGQKRRQDVVLYAQIQGDTIRLKKVDAP” is 1.07; for “DEESREQQVHHMMEAIKTGDEDRARTLMDKDASLQVGDKVFQGRKEAAKAVSEIVRRVDRFRVDSVTVSGNQVDAKVQFEVNGRNMQATIRIQMHNGRIQHLVIEFRDPNQYREVKK” it is 1.05; for “DEESRRKQAQEFNENLEQGNFEELMKLLDPNAHIIIGEKEVKGREDIRKQQEEDQRRIDHVQIQSVTAHGDKIRALIRFTVNGQQTEVHVVLSFHNGRVKEMKIHTK” it is -0.324.
In the case of “DEESVQTFAQQRRQGNFEELIKMMDPNVEMKVGDKTWTGREQVQTALEHLKERVDRIQIDHMDVKGNHVDIDYVLNFNGRNVKATQKIEMKNGSAKRIQIDATNEENEKELKKAFS” it was -0.163; in that of “DEETAEQVMRELNRLLKNGNPDEMMTMMDKDARIEVGDKTYHGRDDIRRQNKEDRRRVDRFEVTSVDVRGDKADIDARFQFNGKTKRYQLFAKFHNGRVKHLEIEDK”, 0.034; in that of “DEETAQKIVEKLATGDEEQKREQMDKDVTVVIGDKELRGRETIVNQLRKIRKQVDHLEVKTYSAHNGRAEIVMRMQVNGRTMEYSIRVQVHNGRIQHIKFRVRNHEVQELLDRLLS”, 0.464.
The figure for “DEETDAKKAKDDMQHVANTNNPKDRETLLDENAEIVVGDEKYQGRHDVQKLNQEIEKRVDEVRVEVTEVTIQGDKLHVDAVFRVRVNGKTEQDRKVIVMDIHNGSVKVRFIHQP” is 0.94; for “DEETDEKVAKTLMRIMRTGDPKQYADQADEEVRVVVGDQTYTGRESVSEAFEEWTERVDHLEIKDIRVHGEKVNIDAVVDINGHQRKIEFSMTLHNGRIKELVYTDG” it is -0.598.
For “DEETEDKARRFVEAFHTGDPKNINRLMDKDARMKYGDTTVHGRHQIDKWIKELKDEIRIELDRVEIRADNGRVTAELDMVFDVNGKPVKHTLVFIFQFHNGRMHEVKIRIDEDVLRKLKR”, the protease stability score was determined as 0.746.
“DEETHANEFLKTREKALTSNDETELRRLVPPDVRFQVGDKQIHGREEWARKLKDDRTRVDHVTVRVVSITVRPNHIKVNLQEEVVVNGTRSRDRYEAHIVNENGHMQMHSFRQQ” had a protease stability score of -0.396.
The figure for “DEETIKHLVKVLEDGDKKRFQKLADPNVRMRVGDKQVHGREKAATLWQHFMDSVDHFFIDHVHIDGEKAHIRADLVVNGQRDTVSIDIKVHNGRIKDVVLRFRDPDYKRKVEKVLG” is 1.56; for “DEETIRHEARKFQEDMKDGNHDEAVKYAPPNVKIQIGDKTFHGREQMKRFFKELRDEIDHVDLEHVTFHNGRLRVEVRFKINGQDFQVVFYFNYHNGQIENFKVQYRNEEEQQKVEG” it is 0.182; for “DEETKAHKWAEKFQRALKDGDPKKMENLMDKNVKAQYGDKTIHGDEEANSWVRRMKHQVDHVSATITRVEADNGKVIVRMTVVVDHNGREQRYEVNLEAKDHNGHIHLTRLKVG” it is 0.262.
In the case of “DEETKAREFIKKVQNVMRTNNPEDFVKQFDPNARMVVGDKSYHGRDDVRKWAQDLFRRADHVSMSVKRLSVHNGRFHMQADLEVHVNGHREEVKVVMNAKDENGQILIKHARFE” it was 1.77; in that of “DEETKARHQIKHMNKLAQTGQLHEVAKQADPNAEFRIGDKTLRGRDNFVRQVKETADTVDHFDVQVRRVHVKGDKAKANIDLRFDVNGKQERRTLRFSAVMDNGEVVVRFMQIN”, -0.03; in that of “DEETKDWVDRFFQALHKNNEEELEQLMDPNAHINIGDKVWHGREEFRREHERQAKHWRFTQDITRIDVKGNKARLRVRFRMNYDGKPKDSKARIEIIIHNGKLKEYRQKDDG”, 0.351.
For the sequence “DEETLHDVLRHLKHGDPDTIDRMADENAKAVIGNQEIHGREEISKIAKDLERKVDHQEVHKVEIDGDKATVTYRQNVNGRTVYMYVIVQNHDGHIKYVVIKARDEDEMRKWEENLS”, the protease stability score was determined as 0.742.
With “DEETLRQANRKIQEFLSTNNFDELAKQMDKDVQIRIGDKEVHGRKDAQKMLTDIKDDADHASVHHVDVRGDKAKVRFEVNHNGSVKDVTVTITFHNGRIKRAKWHDT”, the protease stability score came out at 0.089.
“DEETNKKFASELVHVLRTGDDERLKSMADENATLEVGDKTFHGREEMRKAAEEWQKEIDDLKIESLHVNGDKVVIHFVFTVNGRTDRQIMHLHFDNGKIKSAKMHSG” had a protease stability score of 0.96.
In the case of “DEETNQELLERLIDLISHGDEDEFNRQADEEAKAQYGDTRYHGREEVVKAIKTLADRVDHWHIESYHVHGNEMVIDMRWTVNGRTRRANIVMEAENGRIKYVQMDDQ” it was 0.765.
The figure for “DEETQFKKLMETMKEQNKRGDPRKHEEYVDPNAKVRVGDQDLHGREDVRRVLQEWAERADHVDLKVESMSVHNGKQTAIMVIVLRYNGRNETRRVQVVFDKSNGTVRLVNLRNS” is 0.856; for “DEETQNTRMEEFFKALKTGDEDRAVELADENVKIEIGDRSVSGREVVRHYVQDFQRRVDHNEIKSMRVHNGRAEVTMVVNHNGTTDTRVVHLEAENGRVRRISVDHP” it is 0.448.
In the case of “DEETRKRVETLLEALETGNPEEISKQIDPNATVVVGDKTLHGREDIRDWVRRQHEKIRVEYKHVQIRIHNGRAHVTFEAVVEVNGKPKTVRAQMVFTVSNGKFQHIELHLDEEWKKMEKG” it was 1.38; in that of “DEETTDILNELLRAYQNNDSKRIVELADPNASANIGDKQYHGMEDAARTQVKRMRQIHVEIKHVSSDNQGEKIELEMRFVDNHNGKPEQSTRNMTVVMKNGKVDKFTIRDDG”, 0.085.
